According to paper PMC8497620, “Structure and inhibition of Cryptococcus neoformans sterylglucosidase to develop antifungal agents” (Nature Communications, 2021):

What was measured:
C. neoformans Sgl1 [1] = target: T1, C. neoformans Sgl1 (Cryptococcus neoformans var. grubii, UniProt J9W473); assay: Sgl1 inhibition with res-glp substrate (HTS, single-compound dose-response); format: biochemical; settings: res-glp as substrate (100 µM), primary screen; read-out: IC50 against Sgl1
Protocol: Resorufin-3β-D-glucopyranoside (res-glp, Sigma-Aldrich) enzyme kinetic assays were performed according to methods described by Urban et al.[16] with modifications. Reaction buffer contained 50 mM citric acid, 176 mM K2HPO4, pH 6, 0.01% Tween-20, and 10 mM sodium taurocholate. The reactions were carried out in black 96-well plates using 20 ng of enzyme with 100 μM res-glp substrate. In all, 10 μL/well of res-glp substrate was added to each well and the reaction was initiated by adding 20 μL enzyme (20 ng). After incubation at 37 °C for 30–40 min, the fluorescence was read at an excitation of 570 (±10) nm and an emission of 610 (±10) nm on a VersaMax™ Microplate Reader from Molecular Devices. A standard curve was prepared with serial dilutions of the free fluorophore, resorufin, in the same volume of assay buffer.
A ChemBridge DIVERSet-CL library (San Diego, CA) containing 50,000 compounds was screened to identify small molecules that inhibit C. neoformans Sgl1. The library was prepared in a 96-well plate format containing a cocktail of 10 compounds per well at 1 mM each in 100% DMSO. The cocktail plates were first diluted to 100 μM each (1:10 dilution in Dulbecco’s phosphate-buffered saline, DPBS) resulting in 10% DMSO. In order to screen the compound cocktails at […] in 1% DMSO in a final reaction volume of 30 μL an aliquot of 3 μL was added to 17 μL of buffer containing 20 ng of enzyme and the reaction was started adding 10 μL of 100 μM res-glp. A negative control without enzyme and positive controls with and without DMSO were prepared. The plates were incubated at 37 °C for 40 min.
The Z′-factor was used for the assessment of the efficiency of the HTS assay for each individual plate. Values greater than 0.5 has been considered as an indicator of an excellent screening assay quality.

C. neoformans Sgl1 [2] = target: T1, C. neoformans Sgl1; assay: H/D exchange mass spectrometry mapping of disordered regions; settings: H/D exchange MS of C. neoformans Sgl1; per peptide (amino acids Start-End, Sequence); Fig S2a
Protocol: HDX-MS reactions were performed in a similar manner as is outlined in previous publications. HDX reactions were conducted in a final reaction volume of 50 µL with a final Sgl1 concentration of 0.6 µM (30 pmol). Exchange was carried out in triplicate for a single time point (3 s at 4 °C). Hydrogen deuterium exchange was initiated by the addition of 48 µL of D2O buffer (100 mM NaCl (20 mM pH 6.0 Bis-Tris), 90.5% D2O (V/V) to 1 µL of protein and 1 µL of H2O. Exchange was terminated by the addition of ice-cold acidic quench buffer, resulting in a final concentration of 0.6 M guanidine-HCl and 0.9% FA post quench. Samples were immediately frozen in liquid nitrogen and stored at −80 °C. Fully deuterated samples were generated by first denaturing the protein in 2 M guanidine for 5 min at 20 °C. Following denaturing, 48 µL of D2O buffer was added to the denatured protein and allowed to incubate for 5 min at 20 °C before quenching. Samples were flash frozen and stored at −80 °C until injection onto the ultra-performance liquid chromatography (UPLC) system for proteolytic cleavage, peptide separation, and injection onto a QTOF for mass analysis.
Protein sample was rapidly thawed and injected onto a UPLC system kept in a cold box at 2 °C. The protein was run over two immobilized pepsin columns (Applied Biosystems; Porosyme 2-3131-00) and the peptides were collected onto a VanGuard Precolumn trap (Waters). The trap was eluted in line with an ACQUITY 1.7 μm particle, 100 × 1 mm^2 C18 UPLC column (Waters), using a gradient of 5–36% B (Buffer A 0.1% formic acid, Buffer B 100% acetonitrile) over 16 min. MS experiments were performed on an Impact QTOF (Bruker) and peptide identification was done by running tandem MS (MS/MS) experiments run in data-dependent acquisition mode. The resulting MS/MS dataset was analyzed using PEAKS7 (PEAKS) and a false discovery rate was set at 1% using a database of purified proteins and known contaminants. HDExaminer Software (Sierra Analytics) was used to automatically calculate the level of deuterium incorporation into each peptide. All peptides were manually inspected for correct charge state and presence of overlapping peptides. Deuteration levels were calculated using the centroid of the experimental isotope clusters, with correction for back exchange generated using the fully deuterated sample. The mass spectrometry proteomics data have been deposited to the ProteomeXchange Consortium via the PRIDE partner repository[31] with the dataset identifier PXD024981.

T1 sequence (J9W473 entry or part of it): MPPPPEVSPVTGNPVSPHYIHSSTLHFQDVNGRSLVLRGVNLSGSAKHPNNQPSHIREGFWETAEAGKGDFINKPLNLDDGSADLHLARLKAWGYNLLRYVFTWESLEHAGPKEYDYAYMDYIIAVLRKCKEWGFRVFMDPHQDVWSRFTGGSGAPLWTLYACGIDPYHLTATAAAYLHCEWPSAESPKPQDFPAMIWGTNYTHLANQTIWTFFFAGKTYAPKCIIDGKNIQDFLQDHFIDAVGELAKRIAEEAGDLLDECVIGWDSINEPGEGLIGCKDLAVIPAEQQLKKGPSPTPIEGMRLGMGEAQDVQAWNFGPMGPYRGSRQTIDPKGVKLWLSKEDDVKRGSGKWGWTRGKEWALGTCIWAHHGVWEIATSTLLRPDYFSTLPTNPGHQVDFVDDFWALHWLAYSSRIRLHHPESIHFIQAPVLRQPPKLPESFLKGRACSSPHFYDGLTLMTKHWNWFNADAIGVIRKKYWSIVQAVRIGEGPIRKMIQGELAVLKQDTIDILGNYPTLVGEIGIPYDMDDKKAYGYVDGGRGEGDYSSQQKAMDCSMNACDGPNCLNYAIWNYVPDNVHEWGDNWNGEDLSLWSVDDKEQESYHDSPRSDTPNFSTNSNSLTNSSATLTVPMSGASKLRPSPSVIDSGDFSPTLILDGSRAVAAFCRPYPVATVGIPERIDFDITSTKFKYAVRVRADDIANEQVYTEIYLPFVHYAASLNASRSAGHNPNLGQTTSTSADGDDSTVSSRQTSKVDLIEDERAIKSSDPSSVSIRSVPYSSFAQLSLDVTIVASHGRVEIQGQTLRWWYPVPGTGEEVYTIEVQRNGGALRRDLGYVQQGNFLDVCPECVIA

| IC50 (C. neoformans Sgl1 [1]) | Compound | % Deuterium incorporation, Average (C. neoformans Sgl1 [2]) |
| --- | --- | --- |
| 4 µM | O=C(c1ccc(-c2ccccc2)c(F)c1)C1CCCN(C2CCSCC2)C1 (stereo not shown) [Hit 2] | – |
| 4 µM | CCC(Sc1nc2ccccc2o1)C(=O)N1CCc2[nH]cnc2C1 (stereo not shown) [Hit 8] | – |
| 4 µM | CN(C)CCN(Cc1ccsc1)Cc1ccc2nonc2c1 [Hit 11] | – |
| 2 µM | COc1cc(CNCc2cc(C)cc3c(C)c(C)[nH]c23)cc2c1OCO2 [Hit 12] | – |
| – | RAIKSSDPSSVSIRSVPYSSF | 104.9% |
| – | RFTGGSGAPLWTL | 6.3% |
| – | RGVNLSGSAKHPNNQPSH | 44.0% |
| – | RGVNLSGSAKHPNNQPSHIREGF | 44.7% |
| – | RIRLHHPESIHF | 6.5% |
| – | RRDLGYV | 59.6% |
| – | RRDLGYVQQGN | 98.6% |
| – | RRDLGYVQQGNF | 98.0% |
| – | RSVPYSSF | 93.7% |
| – | RVFMDPHQDV | 5.4% |
| – | RVFMDPHQDVW | 3.4% |
| – | RVFMDPHQDVWSRF | 4.4% |
| – | RWWYPVPGTG | 40.0% |
| – | RWWYPVPGTGE | 36.9% |
| – | RWWYPVPGTGEEV | 29.8% |
| – | SADGDDSTVSSRQTSKVDL | 103.2% |
| – | SINEPGEGL | 13.9% |
| – | SIRSVPYSSF | 96.6% |
| – | SLEHAGPKEYD | 7.5% |
| – | SLEHAGPKEYDYA | 6.0% |
| – | SRFTGGSGAPLWTL | 5.6% |
| – | SRSAGHNPNLGQTTSTSADGDD | 102.7% |

| IC50 (C. neoformans Sgl1 [1]) | Compound | % Deuterium incorporation, Average (C. neoformans Sgl1 [2]) |
| --- | --- | --- |
| – | SRSAGHNPNLGQTTSTSADGDDSTVSSRQTSKVDL | 101.7% |
| – | SSRIRLHHPESIHF | 4.1% |
| – | STLPTNPGHQVD | 53.3% |
| – | STLPTNPGHQVDF | 73.1% |
| – | STNSNSLTNSSA | 102.0% |
| – | STNSNSLTNSSAT | 101.5% |
| – | STNSNSLTNSSATL | 102.1% |
| – | STNSNSLTNSSATLTVPMSG | 99.8% |
| – | STNSNSLTNSSATLTVPMSGASKLRPSPSV | 91.4% |
| – | STNSNSLTNSSATLTVPMSGASKLRPSPSVIDSGDFSPTL | 72.8% |
| – | STVSSRQTSKVDL | 98.6% |
| – | SYHDSPRSDTPNF | 96.9% |
| – | TGGSGAPLWTL | 5.6% |
| – | TIDPKGVKL | 7.9% |
| – | TIEVQRNGGAL | 26.9% |
| – | TLMTKHWNWFNA | 34.8% |
| – | TVGIPERIDF | 7.3% |
| – | TVPMSGASKLRPSPSV | 90.4% |
| – | TVPMSGASKLRPSPSVIDSGDFSPTL | 57.8% |
| – | TWESLEHAGPKEYD | 5.0% |
| – | VGEIGIPYDMD | 24.9% |
| – | VGEIGIPYDMDDKKAYGYVDGGRGEGDY | 21.5% |
| – | VGEIGIPYDMDDKKAYGYVDGGRGEGDYSSQQKAMD | 19.4% |
| – | VGELAKRIAEEAGDL | 5.8% |
| – | VGIPERIDF | 8.3% |
| – | VIGWDSINEPGEGL | 4.0% |

| IC50 (C. neoformans Sgl1 [1]) | Compound | % Deuterium incorporation, Average (C. neoformans Sgl1 [2]) |
| --- | --- | --- |
| – | VIGWDSINEPGEGLIG | 3.9% |
| – | VIGWDSINEPGEGLIGCKDL | 5.1% |
| – | VIRKKYWSIVQ | 49.5% |
| – | VIRKKYWSIVQA | 46.8% |
| – | VLKQDTIDILGNYPTL | 10.8% |
| – | VNLSGSAKHPNNQPSHIREGF | 45.8% |
| – | VQAWNFGPMGPYRGSRQTIDPKGVKL | 24.9% |
| – | VQRNGGAL | 39.7% |
| – | VQRNGGALRRDLG | 72.0% |
| – | VRIGEGPIRKMIQGEL | 21.0% |
| – | VSIRSVPYSSF | 97.9% |
| – | VTIVASHGRVEIQGQTL | 23.2% |
| – | VTIVASHGRVEIQGQTLRWWYPVPGTGE | 23.1% |
| – | VTIVASHGRVEIQGQTLRWWYPVPGTGEE | 22.0% |
| – | VTIVASHGRVEIQGQTLRWWYPVPGTGEEV | 18.9% |
| – | VTIVASHGRVEIQGQTLRWWYPVPGTGEEVY | 18.9% |
| – | VWEIATSTLLRPDYFS | 21.9% |
| – | WAHHGVWE | 1.5% |
| – | WAHHGVWEI | 2.5% |
| – | WALGTCI | 3.3% |
| – | WALGTCIWAHHGVWE | 1.7% |
| – | WALHWLAY | 4.9% |
| – | WESLEHAGPKEYD | 6.6% |
| – | WESLEHAGPKEYDY | 7.1% |
| – | WESLEHAGPKEYDYA | 8.8% |
| – | WETAEAGKGDF | 47.7% |

| IC50 (C. neoformans Sgl1 [1]) | Compound | % Deuterium incorporation, Average (C. neoformans Sgl1 [2]) |
| --- | --- | --- |
| – | WLSKEDDVKRGSGKWGWTRGKE | 27.6% |
| – | WLSKEDDVKRGSGKWGWTRGKEWALGTCI | 17.4% |
| – | WLSKEDDVKRGSGKWGWTRGKEWALGTCIWAHHGVWE | 11.7% |
| – | WNFGPMGPYRGSRQ | 53.6% |
| – | WNFGPMGPYRGSRQTIDPKG | 43.4% |
| – | WNFGPMGPYRGSRQTIDPKGVKL | 28.6% |
| – | WSRFTGGSGAPLWTL | 5.9% |
| – | WSVDDKEQES | 70.6% |
| – | WSVDDKEQESY | 71.0% |
| – | WSVDDKEQESYHDSPRSDTPNF | 83.4% |
| – | YACGIDPYHLTA | 15.5% |
| – | YACGIDPYHLTATA | 18.2% |
| – | YAIWNYVPDNVHE | 15.0% |
| – | YAIWNYVPDNVHEWGDN | 15.4% |
| – | YLHCEWPSAESPKPQDF | 52.9% |
| – | YLHCEWPSAESPKPQDFPAM | 56.9% |
| – | YTHLANQ | 4.9% |
| – | YTHLANQTIWTF | 3.6% |
| – | YTHLANQTIWTFF | 3.1% |
| – | YVDGGRGEGD | 72.5% |
| – | YVDGGRGEGDY | 69.5% |
| – | YVDGGRGEGDYSSQ | 64.9% |
| – | YVDGGRGEGDYSSQQ | 65.8% |
| – | YVDGGRGEGDYSSQQKAMD | 51.4% |
| – | YVQQGNF | 102.8% |
| – | YVQQGNFL | 101.5% |

| Compound | IC50 (C. neoformans Sgl1 [1]) | % Deuterium incorporation, Average (C. neoformans Sgl1 [2]) |
| --- | --- | --- |
| CC(C)Oc1cccc(C(=O)C2CCCN(C3CCSCC3)C2)c1 (stereo not shown) [Hit 3] | 4 µM | – |
| Cc1cc(NCc2ccc3[nH]c(C)c(C)c3c2)nc(N)n1 [Hit 4] | 4 µM | – |
